Data published in the supplement of paper PMC9112550, “Optimization of the antimicrobial peptide Bac7 by deep mutational scanning” (BMC Biology, 2022).

System: Escherichia coli TOP10
Test: shrunken log2 fold change of peptide-encoding DNA abundance (4.5 h post-induction vs induction); higher = less antimicrobial activity (less host growth inhibition)
Settings: time post-induction: 4.5 h; library: site-saturation at positions 5, 18, 19, 20
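Note: peptides expressed intracellularly from a pBAD plasmid library in pooled LB shake-flask culture, induced with 0.3% L-arabinose, DNA abundance read by NGS, three biological replicates, DESeq2 with apeglm shrinkage.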

Row | Sequence | shrunken log2 fold change
1 | RRIRYRPPRLPRPRPRPCCHPRP | -1.36
2 | RRIRWRPPRLPRPRPRPYQAPRP | -0.0526
3 | RRIRRRPPRLPRPRPRPWFSPRP | -0.0902
4 | RRIRIRPPRLPRPRPRPIKVPRP | -0.398
5 | RRIRVRPPRLPRPRPRPGTEPRP | 0.0578
6 | RRIRQRPPRLPRPRPRPYPPPRP | -0.357
7 | RRIRERPPRLPRPRPRPDRHPRP | -0.0302
8 | RRIRGRPPRLPRPRPRPIQHPRP | -0.0341
9 | RRIRIRPPRLPRPRPRPDVLPRP | -1
10 | RRIRPRPPRLPRPRPRPGADPRP | 0.407
11 | RRIRRRPPRLPRPRPRPLYEPRP | -0.0905
12 | RRIRVRPPRLPRPRPRPLRVPRP | 0.543
13 | RRIRERPPRLPRPRPRPKHYPRP | -0.373
14 | RRIRERPPRLPRPRPRPCCAPRP | 0.112
15 | RRIRCRPPRLPRPRPRPEGWPRP | 0.855
16 | RRIRARPPRLPRPRPRPNSTPRP | 0.0264
17 | RRIRGRPPRLPRPRPRPAIHPRP | 0.164
18 | RRIRPRPPRLPRPRPRPRRAPRP | 0.525
19 | RRIRNRPPRLPRPRPRPMADPRP | 0.0252
20 | RRIRQRPPRLPRPRPRPGVPPRP | 0.154
21 | RRIRMRPPRLPRPRPRPQDNPRP | 0.013
22 | RRIRNRPPRLPRPRPRPAEGPRP | 0.0922
23 | RRIRWRPPRLPRPRPRPRQTPRP | 0.0702
24 | RRIRDRPPRLPRPRPRPEDQPRP | 0.0219
25 | RRIRARPPRLPRPRPRPHNFPRP | -0.108
26 | RRIRKRPPRLPRPRPRPCKCPRP | 0.0183
27 | RRIRDRPPRLPRPRPRPGIKPRP | -0.165
28 | RRIRFRPPRLPRPRPRPSWCPRP | -0.0879

Row | Sequence | shrunken log2 fold change
29 | RRIRIRPPRLPRPRPRPVIEPRP | -0.121
30 | RRIRKRPPRLPRPRPRPWIKPRP | -0.00314
31 | RRIRGRPPRLPRPRPRPICWPRP | 0.714
32 | RRIRTRPPRLPRPRPRPGCGPRP | 0.385
33 | RRIRLRPPRLPRPRPRPAVDPRP | 0.163
34 | RRIRARPPRLPRPRPRPTMDPRP | -0.037
35 | RRIRLRPPRLPRPRPRPYWGPRP | -0.304
36 | RRIRNRPPRLPRPRPRPDHPPRP | -0.0362
37 | RRIRNRPPRLPRPRPRPPSLPRP | -0.0145
38 | RRIRPRPPRLPRPRPRPKDRPRP | -0.114
39 | RRIRPRPPRLPRPRPRPLVHPRP | -0.00919
40 | RRIRPRPPRLPRPRPRPESMPRP | 0.142
41 | RRIRERPPRLPRPRPRPEYCPRP | 0.0191
42 | RRIRYRPPRLPRPRPRPDAHPRP | -0.0156
43 | RRIRCRPPRLPRPRPRPKHFPRP | -0.209
44 | RRIRCRPPRLPRPRPRPPNNPRP | -0.138
45 | RRIRMRPPRLPRPRPRPGIKPRP | 0.274
46 | RRIRVRPPRLPRPRPRPLYHPRP | -0.677
47 | RRIRWRPPRLPRPRPRPDSDPRP | 0.0473
48 | RRIRVRPPRLPRPRPRPPAFPRP | 0.068
49 | RRIRIRPPRLPRPRPRPQLKPRP | -0.456
50 | RRIRLRPPRLPRPRPRPYKKPRP | -0.404
51 | RRIRLRPPRLPRPRPRPYKEPRP | -0.0365
52 | RRIRNRPPRLPRPRPRPHMDPRP | -0.384
53 | RRIRYRPPRLPRPRPRPMILPRP | -0.287
54 | RRIRVRPPRLPRPRPRPGNPPRP | -0.104
55 | RRIRIRPPRLPRPRPRPVVVPRP | -0.0561
